Assay results published in patent US20180086836A1 (GLENMARK PHARMACEUTICALS S A, published 2018).
Numbering of substitutions follows the chain as printed. Names may count otherwise.

Legend:
[1] = target: T1, recombinant human N-terminal CCR6 Fc (human); assay: SPR, human CCR6 N-terminal peptide Fc on the chip, FAB as analyte
T1 construct: also called human CCR6-Fc; hsCCR6-Nter-Fc

[2] = target: T2, recombinant cynomologus N-terminal CCR6 peptide Fc (cynomolgus monkey; human); assay: SPR, cynomolgus CCR6 N-terminal Fc fusion coupled on the sensor chip, FAB as analyte
T2 construct: It differs from the human construct only in the CCR6 N-terminus; also called Cyno CCR6-Fc; cynoCCR6-Nter-Fc

[3] = target: T2, recombinant cynomologus N-terminal CCR6 …; assay: SPR, FAB as analyte, fusion protein coupled onto the sensor chip
[4] = target: T1, recombinant human N-terminal CCR6 Fc; assay: as above
[5] = target: T1, recombinant human N-terminal CCR6 Fc; assay: SPR, human CCR6 N-terminal Fc fusion coupled on the sensor chip, FAB as analyte
[6] = target: T2, recombinant cynomologus N-terminal CCR6 …; assay: direct ELISA, Fc fusion coated at 2 µg/ml, anti-human F(ab')2-HRP
Procedure: (§1) FIG. 8: Direct binding ELISA on immobilized recombinant human N-terminal CCR6 Fc. Binding of humanized 4H11 H5L1 antibody on human N terminus fragment of CCR6 was measured by direct ELISA. Various concentrations (ranging from 10 to 0.00006 μg/ml) of humanized 4H11 H5L1 in IgG1 and IgG4HS backbones were incubated with 2 μg/ml of either recombinant human N terCCR6-Fc tagged protein (FIG. 8A) or recombinant cynomologus N-terminal peptide Fc (FIG. 8B), coated overnight at 4° C. in a 96-well plate. Binding of humanized 4H11 H5L1 antibody to Nter CCR6-Fc protein was detected by horseradish peroxidase (HRP)-conjugated anti-human (Fab)′2-specific antibody.
(§2) A binding ELISA was performed to test the reactivity of 4H11 VH5/VL1 IgG1 and 4H11 VH5/VL1 IgG4HS antibodies on peptides consisting of the N-terminal region of CCR6 from human and cynomologus species. Briefly, 96 well-microtiter plates (Costar USA, distributor VWR AG, Nyon, Switzerland) were coated with 100 μl of recombinant human and cynomologus N-terminus peptide-Fc at 2 μg/ml in PBS. Plates were incubated overnight at 4° C. and were then blocked with PBS 2% BSA (Bovine Serum Albumine, PAA Laboratories, Pasching, Austria) at room temperature (RT) for one hour. The blocking solution was removed and various concentrations of 4H11 VH5/VL1 IgG1 and 4H11 VH5/VL1 IgG4HS were added. The plates were incubated at RT for 1 hour, then washed six times with PBS 0.01% Tween-20 (Sigma-Aldrich Chemie GmbH, Buchs, Switzerland) and a goat-anti human Ig F(ab′)2 fragment specific-HRP (Jackson ImmunoResearch Europe Ltd, Newmarket, UK). After washing, the plates were incubated with TMB substrate (Bio-Rad Laboratories AG, Reinach, Switzerland) to reveal antibody binding. The reaction was stopped by adding 2M H₂SO₄ and the optical density was read at 450 nm (OD 450 nm) on a Synergy HT2 spectrophotometer (Biotek, USA; distributor: WITTEC AG, Littau, Switzerland).

[7] = target: T1, recombinant human N-terminal CCR6 Fc; assay: as above
Procedure: as §1, §2

human CCR6 = target: T3, human CCR6 (human, UniProt P51684 1-374); assay: flow cytometry on BAF cells transfected with human CCR6, hybridoma supernatant, anti-mouse IgG-PE
T3 construct: Full length human CCR6 on transfected BAF or CHO cells, or native on human PBMCs; also called hsCCR6; CCR6 receptor
T3 sequence: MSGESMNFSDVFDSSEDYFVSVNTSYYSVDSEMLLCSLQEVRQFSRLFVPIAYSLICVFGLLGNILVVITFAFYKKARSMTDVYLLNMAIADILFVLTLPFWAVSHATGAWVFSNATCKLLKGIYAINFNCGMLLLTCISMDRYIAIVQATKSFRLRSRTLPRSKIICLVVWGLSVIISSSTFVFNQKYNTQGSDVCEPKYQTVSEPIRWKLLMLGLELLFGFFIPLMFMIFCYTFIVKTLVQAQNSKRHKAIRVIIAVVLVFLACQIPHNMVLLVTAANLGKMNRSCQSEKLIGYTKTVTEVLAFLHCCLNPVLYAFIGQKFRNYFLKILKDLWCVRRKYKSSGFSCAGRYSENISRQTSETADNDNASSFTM
Procedure: Antibody titers, specificity and production by hybridomas and recombinant antibody candidates were determined by flow cytometry. Briefly, BAF cells transfected with human CCR6 (Generation of these transfected cells is detailed in example 1) were cultured and 2×10⁵ cells were distributed in a 96 well V bottom plate (TPP, Trasadingen, Switzerland), and centrifuged for three minutes at 1300 rpm; supernatants were discarded, cells were collected and analyzed by flow cytometry as described below. Cells were resuspended in 50 μl of hybridoma supernatant or in 50 μl of FACS buffer (PBS, 2% FBS, 10% Versene (Invitrogen, USA)) with 5 μg/mL of isotype control or commercial mouse anti-human CCR6 antibody (clone 11A9, BD Biosciences, Allschwil, Switzerland). Cells were incubated for 30 minutes on ice, washed two times and resuspended in 50 μl of FACS buffer. An anti-mouse IgG-Phycoerithrin-PE (BD Biosciences, Allschwil, Switzerland) diluted 1/200 was used to detect CCR6-specific mouse hybridoma and the isotype control antibody. Cells were incubated for 15 minutes on ice, washed once, resuspended in 400 μl of FACS buffer and analyzed on the FACS instrument (Cyan, Beckman Coulter International S.A., Nyon, Switzerland).

[8] = target: T1, recombinant human N-terminal CCR6 Fc; assay: SPR (Biacore) off-rate ranking of scFv on the human CCR6 N-terminal Fc fusion

B1: VH5/VL1 L1-N28T FAB (Fab, V domains shown)
VH: EVQLVESGGGLVQPGGSLRLSCAASGFSFSDYYMYWVRQAPGKGLEWVSYITNGGITYYPDSVKGRFTISRDNSKNTLYLQMNSLRAEDTAVYYCTSPLRGAWFAYWGQGTLVTVSS
VL: DVVMTQSPLSLPVTLGQPASISCRSSQSIVHSTGNTYLEWYQQRPGQSPRLLIYKVSNRFSGVPDRFSGSGSGTDFTLKISRVEAEDVGVYYCFQGSHVPLTFGQGTKLEIKR
notes: CDR-L1 deamidation-site variant; copies: 1 + 1
binding result [1]: binds

B2: VH5/VL1 FAB (parental) (Fab, V domains shown)
VH: B1 VH
VL: DVVMTQSPLSLPVTLGQPASISCRSSQSIVHSNGNTYLEWYQQRPGQSPRLLIYKVSNRFSGVPDRFSGSGSGTDFTLKISRVEAEDVGVYYCFQGSHVPLTFGQGTKLEIK
notes: Human FAB fragment; also called parental FAB; parental VH5/VL1 FAB
Kd [2]: 33.6 nM

B3: VH5/VL1 L1-G29A FAB (Fab, V domains shown)
VH: B1 VH
VL: B2 VL with G34A
notes: VH5/VL1 FAB fragment with G29A in CDR-L1
binding result [1]: binds

B4: VH5/VL1-B3C9-G29A FAB (Fab, name in Kabat numbering, V domains shown)
VH: B1 VH with N53T, I56R
VL: B2 VL with G34A, S97T, H98Y, V99Y
Kd [2]: 1.23 nM
Kd [3]: ~1 nM
fold improvement in affinity compared to the parental VH5/VL1 FAB [3]: ~30 fold
Kd [4]: ~0.5 nM
fold improvement in KD value over the first pair of FAB constructs [4]: 2 fold
fold improvement in affinity compared to the parental VH5/VL1 FAB [4]: ~40 fold
Kd [5]: 0.544 nM

B5: VH5/VL1-C9-G29A FAB (Fab, V domains shown)
VH: B1 VH
VL: B2 VL with G34A, S97T, H98Y, V99Y
Kd [2]: 2.79 nM
fold improvement in KD value compared to the parental FAB [4]: ~20 fold
Kd [5]: 1.28 nM

B6: VH5/VL1 L1-N28S FAB (Fab, V domains shown)
VH: B1 VH
VL: B1 VL with T33S
notes: as for B1
binding result [1]: binds

B7: VH5/VL1-G8-G29A FAB (Fab, V domains shown)
VH: B1 VH
VL: B2 VL with G34A, S97T, H98Y, V99L
Kd [2]: 2.19 nM
fold improvement in KD value compared to the parental FAB [4]: ~20 fold
Kd [5]: 1 nM

B8: VH5/VL1-B3G8-G29A FAB (Fab, name in Kabat numbering, V domains shown)
VH: B1 VH with N53T, I56R
VL: B2 VL with G34A, S97T, H98Y, V99L
Kd [2]: 1.17 nM
Kd [3]: ~1 nM
fold improvement in affinity compared to the parental VH5/VL1 FAB [3]: ~30 fold
Kd [4]: ~0.5 nM
fold improvement in KD value over the first pair of FAB constructs [4]: 2 fold
fold improvement in affinity compared to the parental VH5/VL1 FAB [4]: ~40 fold
Kd [5]: 0.526 nM

B9: 4H11 VH5/VL1 IgG1 antibody (antibody, V domains shown)
VH: B1 VH
VL: B1 VL with T33N
notes: also called H5/L1; VH5/VL1 antibody
EC50 (read off the curve) [6]: ~0.2 µg/mL
EC50 (read off the curve) [7]: ~0.07 µg/mL

B10: 4H11 (antibody, V domains shown)
VH: EVKLVESGGGLVQPGGSLKLSCATSGFSFSDYYMYWIRQTPEKRLEWVAYITNGGITYYPDTVKGRFTISRDNAKNTLYLQMSRLRSEDTAMYYCTSPLRGAWFAYWGQGTLVTVSS
VL: B2 VL with V3I, T14S, Q17D, P18Q, Q42L, R44K, R50K, V88L, V90L, Q105A
notes: parent of the chimeric 4H11 antibody m1; also called murine antibody 4H11; hybridoma clone 4H11
binding result (human CCR6): binds

B11: VH5/VL1-L3-G8 scFv variant (scFv)
scFv: EVQLVESGGGLVQPGGSLRLSCAASGFSFSDYYMYWVRQAPGKGLEWVSYITNGGITYYPDSVKGRFTISRDNSKNTLYLQMNSLRAEDTAVYYCTSPLRGAWFAYWGQGTLVTVSSGGGGSGGGGSGGGGSTDVVMTQSPLSLPVTLGQPASISCRSSQSIVHSNGNTYLEWYQQRPGQSPRLLIYKVSNRFSGVPDRFSGSGSGTDFTLKISRVEAEDVGVYYCFQGTYLPLTFGQGTKLEIK
binding result [8]: binds
